Test: soluble on expression in E. coli; label from the status in PepcDB or PDB records

| Sequence | soluble on expression in E. coli |
| --- | --- |
| MEMLSGAEMVVRSLIDQGVKQVFGYPGGAVLDIYDALHTVGGIDHVLVRHEQAAVHMADGLARATGEVGVVLVTSGPGATNAITGIATAYMDSIPLVVLSGQVATSLIGYDAFQECDMVGISRPVVKHSFLVKQTEDIPQVLKKAFWLAASGRPGPVVVDLPKDILNPANKLPYVWPESVSMRSYNPTTTGHKGQIKRALQTLVAAKKPVVYVGGGAITAGCHQQLKETVEALNLPVVCSLMGLGAFPATHRQALGMLGMHGTYEANMTMHNADVIFAVGVRFDDRTTNNLAKYCPNATVLHIDIDPTSISKTVTADIPIVGDARQVLEQMLELLSQESAHQPLDEIRDWWQQIEQWRARQCLKYDTHSEKIKPQAVIETLWRLTKGDAYVTSDVGQHQMFAALYYPFDKPRRWINSGGLGTMGFGLPAALGVKMALPEETVVCVTGDGSIQMNIQELSTALQYELPVLVVNLNNRYLGMVKQWQDMIYSGRHSQSYMQSLPDFVRLAEAYGHVGIQISHPHELESKLSEALEQVRNNRLVFVDVTVDGSEHVYPMQIRGGGMDEMWLSKTERT | soluble |
| DWDSREKEAQRVAQRVTARTVSEIEYYHRESTQIAQALVENQARIEGIYKYFSLSMPDYFYWQLERKASPYISVSLYENVDDLYVRNDFVTGVAIAFQDYKEVYVSTKDKRSGEKIRAEDFKPAGNSFAIPVSDPVSDQDLGVIYISLDPAVLYHAIDNTRGHTPMAVTVTSPFDTEIFHMGETVDKESENWLVGLTSHGYQVQVAVPKN | not soluble |
| MAHHHHHHMDKDKDKSKNTPLLYQDTMNDLGDGLQNMDTLRLNRNGNTGNGNKNKTNGSKGVKGEYEKKKETNGHDDYVKESLNRMLESHIDQYFKGLDYYKNNPKCKIDPKIHLHGSEEIENYIVKEKIFVTTYFQYIDVYENAINVDEDLEKEEIVYVEVPKYVTKYKPKIVTNIIEKTIEIPSGEEIKQPKYNTVNVPYVIPNIVENEILVVLKKIIQPEIEITNEELEIEVEKYIPRLVPVNVYVPRYFGISAKAKGEPEESVRYVDLTQDQIDELMKELNPHLNELKVFNETQLKRMDEYMRESQMQARAHNFEPPQPQLITYDESGHCQSYDYSEFHRFKETCIKELTH | not soluble |
| MVLQHQFDGLLEVMPENPRKKLRFTSRHIAAVNRYLDDKYFDPKEEKWSNLHPKYRIVLENLIRQTGPRLSPQVTLFLPNTFNGAFAPRQPFGLPSYFYHTCKKAESITQATHAMNQEYTVKMKNLNDQIDAYIYDTHLDILKVTEKRGDYLKNIPHDFGEHPDNPRNGQDNPKIELEHREILWNGLKVVLENGRFYETSTTETNVVEIFLNDELLNDKLYILKAEFFAAFYASEEATQIEVMVLFDNYFMAGGTIQYGEKLVCHLQEIPGTYGTTSFSCSSDFKSMVRKCGLPPIPRIGSPWNSDLMESIAELQQAIIRLENRVYDKDYIGKYTHENGGFIEAYCASLKNLSNTLYLLEEGTIELPAHSKNWTPREKLAYLSNFAPEKEMTSCEIGKPCASFKMIIGLAKSLRKNPYNFSFSGELLAEFSFQIRMAMLSMYLVLERNLPDAPHDNSQFVMTTLSHFRRLYIDNVKKIYQIFPHFPVEMRPVVLDVMCQRATPANYQEILEIYSYEPDMVTKMVQKYPYILLFTPHVTRPPIKLIRDFSEYMEKEMMSSEQAQMSRVDVIVLEENEPDGQESGVDYILARSNKRARVDFEKLDLLLESIMPEEAPARDYRKNTSEGHLAEIFGPTNNEEAEEEPSLPSCSYSTPKRVNRAKPALDSPSGNLRTANKDQVDLLDNVMQRSEKRQWKM | not soluble |
| MEPSTIVKLDVGGKIFKTTIFTLCKHDSMLKTMFCTDVPVTKNEEGSVFIDRDSKHFRLILNFLRDGQIALPDSDREVREVLAEASYFLLDPLIELCGERLEQSLNPYYHLVSTVLEARKIIFATEKPIVVLRLPVYIATSGNQSYYFSETKFRELSEEYHKHVAFILITEPEFNEDCSWSFFLRAKKITARIKGPMDCNLVEECMPKTVERRREKKTWH | not soluble |
| MSNNKQAWTGQLDLSVFNNGKKSVARDVFFEKALKVMRPVYLNQSDIPTFYIVNVGGGYLDGDRYTMNFNIDSDAKVILTSQGATKIYKTLNDHVEQYQTFNIKNNGYAEYVGDPIIAFENAKFYQHNVFNLESTASLFYTDILTPGYSKSDKRFSYTYMHLLNEIYVDDALVTFDNMLLDPQKQNVDGLGYMEDYTHLGSCYFIHPSVNQKFIEQVYEEIKHFQHKYDCRFGITHLPTHGFSLRILSNKTQVIESIITAVQCYVVKQIFDRDVDFLRKYLEHHHHHH | not soluble |
| MIRMETYPHNFEEKVGFDEIRRLLIGHCHSPMGSDRVIQMHALARHNEVSRLLAETEEMQIILREEDLFPDLRLADVREALNRIRPAGTYLEERELQDVATALRTIEALIRFFHVGEEEEGKDTPYPHLQTLLSEVIVFPDLEKRISSLFDRFGKMKDNASPELMNIRRELSSIEKNISRTLQGILRLAQSEGWVDQGVQPSVRDGRLVIPVAPAHKRKVRGIVHDESGTGKTVFIEPAEIVEANNRIRELEAAERREIIRILIEVCDALRPHIHDLIDCYEWIGLFDFISAKARLCGEWNAIRPILSKKPEIRWEKAVHPLLLRSLRAHGRDVIPLDISLTAPDKRILVISGPNAGGKSVCLKTVGLLQYMLQSGLPIPMSPDSTAGIFGKLFIDIGDEQSIEDDLSTYSSHLRNMKHFARHTDKNTLLLIDEFGGGTEPQIGGAIAEALLHRFNEQEGFGVVTTHYQNLKAYAEETPGLVNGAMLYDRHEMRPLFRLSIGRPGSSFAIEIARKIGLPEEVIAEATDKVGTGYIDMDKYLQDIVRDKRYWETKRTNIRKEEKRLEGAAAEYESRLESIKKERKQILDEARQQASVMLSQSSAQIEKTIRDIKEAQAEREKTRRARQELNDFRETINKEEIEKEERINREIEKIKRRKKRKQEKAASRSAETPVQPKLQEVPQPPVIQVGDTVRIKGQTAIGSIIDMNDREATIALGMIKTTVPIDRLEPAKPVKERKSEPVSGASARMIIDRIHEKRLDFKQDIDLRGMRVNEAVQAVMYFIDDAIQLGIPRVRILHGTGTGALRTVIREYLATVNGVRHFADEHVQFGGAGITVVELG | not soluble |
| MYTHNSSDSIDCNIQSLYRGPQPGRYVRPTGKAVKQVKMEPYSPYSWGDKPYHSLNYYLKQTFGEKIYKLALDGAMTCPNRDGTLGTGGCIFCSGGGSGDFAEPQHASVTEQIEAAKARVSAKIKNGRYIAYFQSYTNTYAPVDYLEALFREAVSHPDIAALSIGTRPDCLPPQVIRLLKEINKEKPVWIELGLQTIHESTAELIRRGYELPCFIDAVRRLKEAGLTVIVHVILGLPGETEDMMLETIRFLANHTPPVDGIKLQLLHVLKGTKLAALYEAAPFPVMTMEEYIDLILKCIRLLPPHIVIHRLSGDGPKKLLIAPEWSGNKRLFLNSLTRALRETGAYQGEWHRPRQP | not soluble |
| MGSDKIHHHHHHMTDPRTTAFNGRVAHASLKGEIEAERYSEGRWMMVQQPIANILDKPRGARTSQLVFGERFLVLDTEDGFSFGQAERDGYVGYILSGALTGAEPATHWVISPATHLYPKAELKVPPDVCLYFGSQVKVTGEKDDFKRIHTGHFMPSQHLMPIKARFRDSVGIADLFLGTPYLWGGTSRWGIDCSGLVQACLLACGVECPRDTDQQEAALGEEIPSDEALKRGDLIFWKGHVGMMASDRMLLHANAHHMSTAYEPLKDAAARIEAKEYGPITSRKRIAMG | not soluble |
| MASLWRAVIGGQNNNSEDYGGVEFWSNPERTGWLTKQGEYIKTWRRRWFVLKQGKLFWFKDSDVTRVSRPRGVVPVESCLTAKGAEDVLNKQNAFELSTRNETMYFIADSEKEKEDWINSIGRSIVQNSRSVTDSEIVDYDNKH | soluble |
| MGSDKIHHHHHHMTYKVLHVGAGGFGERWCDTFLPSNNSDGTIEVVGLVDIDARALEIGRKHLGLKAKQCFTSAAQAFKAVDADFCTIVIPPALHEGIVDLALERGMHILSEKPIAATMEASVRIADKVRVAGRKMAVTMSHRFDQDKSTLRALVSDEALGRVNTVSCRFAGDYRAYDSWGRFRHEMIHPMLIEGAVHHLDIMADLAGAPCTSIYARSWKPEWAEYKGETDVMVLMDFANGAHGVYEGSSAQATGLNDWTFEYVRVEAASGTAILDHREVEVFHRDPKRIYQKNRHGKGQQVSLLGGKKWKNSLLIEQFCHWLDGGPPMATNVEDNLQSVALIFSAIESARLGQPVKVQEFLQSFRKSASIETQ | not soluble |
| MRYSFVIQWDFETVYTGVNSTTNLAFSVKAMTTNFANLQELQDSLVLRGQNLTTQLFWKPTVKRLVLGNNNDLTTVAKAAVGDNLFTTQANLTKSVLDQTVLKEAESRFEATVLKPFIEARQKALAEHQAHQKVLEEQRQKQLEELKQKQKEAE | soluble |
| SLSFLYFNDNSKIANAPLKNRFEKTQKESLIIKNNNEDKKAKSKPKFYLIIDDVGYDEFMLEQFIKLNLKITYAIIPFLPKSMSLYKKLKNANKTVIIHFPMQSKHRNSIEKFHINIKDKKEEIHKKIEKAFKKYPDAKIMNNHMGSLITSNKDLMKIILEKLKEIDRYFFDSVTIAGSVPEIIGKEIGVKVEKRDVFLDSKDTEESVTKELEKAKNIARKNGMVKVIGHIWSKNTLKVLKKEGPDLNQEFEFDNLLNLYEETIR | soluble |
| MGSDKIHHHHHHMSASLNYKSFSKEQQTMDNLEKQLICPICLEMFTKPVVILPCQHNLCRKCASDIFQASNPYLPTRGGTTMASGGRFRCPSCRHEVVLDRHGVYGLQRNLLVENIIDIYKQESTRPEKKSDQPMCEEHEEERINIYCLNCEVPTCSLCKVFGAHKDCQVAPLTHVFQRQKSELSDGIAILVGSNDRVQGVISQLEDTCKTIEECCRKQKQELCEKFDYLYGILEERKNEMTQVITRTQEEKLEHVRALIKKYSDHLENVSKLVESGIQFMDEPEMAVFLQNAKTLLKKISEASKAFQMEKIEHGYENMNHFTVNLNREEKIIREIDFYR | not soluble |
| MKGNALCTGEPVMTIETRGGGSEDIAVLPLDPTGNITRLFIRERCNDSSDPECKTGQWRLGSVDISRENTPASTRYAWRPGNNASEDDFEPLGMSLVPGNTPGEGTLFVIDIARPQSVRIWQLDISGGEITKATLATPADTQTGARLTAANSLQAVRNDDSRSFHLTITRFDEYGLLPFRPTPWPALVRINNGVIQPPPAQDFRNANGIIRPCAGCDLVIASYWERRLRFVSKENGEIGEYASAELPIRPDNLRLDGERILIAGQRRVDLTALNLLVSPHIPSPSGVYAIDTRSLGPDTVPTLLWEGGWKHGHSVATAVALPGNRLAIGQINTPGILIADCSPLEHHHHHH | not soluble |
| MAYDGLFTKKMVESLQFLTTGRVHKINQPDNDTILMVVRQNRQNHQLLLSIHPNFSRLQLTTKKYDNPFNPPMFARVFRKHLEGGIIESIKQIGNDRRIEIDIKSKDEIGDTIYRTVILEIMGKHSNLILVDENRKIIEGFKHLTPNTNHYRTVMPGFNYEAPPTQHKINPYDITGAEVLKYIDFNAGNIAKQLLNQFEGFSPLITNEIVSRRQFMTSSTLPEAFDEVMAETKLPPTPIFHKNHETGKEDFYFIKLNQFNDDTVTYDSLNDLLDRFYDARGERERVKQRANDLVRFVQQQLHKYQNKLAKLIEEYEQSKNKDTEQLYGELITANIYRIKQGDKEVTALNYYTNEEVVIPLNPTKSPSANAQYYYKQYNRMKTRERELQHQIQLTKDNIDYFSTIEQQLHHISVHDIDEIRDELAEQGFMKQRKNQTKKKKAQ | not soluble |

From the DeepSol protein solubility set
